Source: paper PMC9304170, “Chloromethyl Glycosides as Versatile Synthons to Prepare Glycosyloxymethyl‐Prodrugs” (Chemistry (Weinheim an Der Bergstrasse, Germany), 2022)
Several values for one entry are separate records, joined by “and”; a condition that tells them apart may be missing. Equal entries are not always repeated.

Experiments:
[1] = target: T1, Agrobacterium Sp. β-glucosidase (Abg, GH1 family) (Agrobacterium sp., UniProt P12614); test: Michaelis-Menten kinetics of enzymatic hydrolysis, release of 4-nitrophenol (absorbance at 405 nm); assay type: biochemical; details: transglycosylation suggested for rate enhancement
T1 sequence (P12614 1-459): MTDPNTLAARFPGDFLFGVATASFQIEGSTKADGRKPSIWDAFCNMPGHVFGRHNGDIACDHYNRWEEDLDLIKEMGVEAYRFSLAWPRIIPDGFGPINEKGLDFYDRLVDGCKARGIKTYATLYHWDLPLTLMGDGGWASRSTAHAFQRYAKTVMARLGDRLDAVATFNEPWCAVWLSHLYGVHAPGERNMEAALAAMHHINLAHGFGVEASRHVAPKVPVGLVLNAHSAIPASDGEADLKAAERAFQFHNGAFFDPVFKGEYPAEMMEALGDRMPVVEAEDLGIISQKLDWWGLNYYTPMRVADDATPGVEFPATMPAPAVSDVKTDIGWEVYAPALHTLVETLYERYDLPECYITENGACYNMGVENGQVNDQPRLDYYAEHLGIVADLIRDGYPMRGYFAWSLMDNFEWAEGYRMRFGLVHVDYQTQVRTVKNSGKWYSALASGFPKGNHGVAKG
Experimental: (§1) Enzymatic reactions were performed in triplo at pH 6.8 (50 mM final concentration) containing 0.1 % bovine serum albumin at 37 °C.[25] Aliquots of 100 μL were taken at constant time periods and added to 100 μL aq. NaOH (0.1 M) in a 96‐well microtitre plate to quench the enzymatic reaction and ensure maximal absorption of sodium 4‐nitrophenolate as outlined in previous studies.[28] The initial rate (vo) was determined normalized on the ∼0.1 U/mL enzyme concentration and plotted against substrate concentration [S]. Non‐linear regression analysis based on 7–10 concentrations depending on the glycoside, was used to determine the Km and k cat values. k cat values were normalized based on the enzyme concentration. […]
(§2) Kinetic evaluation of 4- nitrophenyloxymethyl glycosides. Enzyme reactions were performed in triplicate. Substrate samples (final volume of 1 mL) were prepared by diluting carefully prepared substrate stock solutions with sodium phosphate buffer pH 6.8 (50 mM final concentration) containing 0.1% bovine serum albumin and milliQ to the desired concentration. The samples were equilibrated at 37 °C for at least 5 minutes before the enzyme in 50 mM buffer (2 U per ml, 50 uL) was added. Aliquots of 100 µL were taken at constant time periods and added to 100 µL aq. NaOH (0.1 M) in a 96 well microtiter plate to quench the enzymatic reaction. The absorbance was measured at 405 nm using a Tecan Spark M10 plate reader.
(§3) Negative assay controls contained no substrate or no enzyme. Rates of the enzymatic reactions were determined at 7 different substrate concentrations from 0.02 – 1.0 mM. Km and kcat values were determined by nonlinear regression analysis using Graphpad 5.0 (GraphPad Software, San Diego, California USA, www.graphpad.com) for fitting the data. Calibration samples at varying concentration (0.05 – 0.5 mM) were prepared similar to the substrate samples in the enzyme reactions by diluting a carefully prepared 4-nitrophenol stock solution with sodium phosphate buffer pH 6.8 (50 mM final concentration) containing 0.1% bovine serum albumin and milliQ to the desired concentration. […]
(§4) (T1 determined as 9.13 sec.) was used. Dynamic measurements were started by heating the sample in the NMR to 37 °C and recording a t0-spectrum. Subsequently Abg (V = 2.05 uL, 0.82 U, 1.64 U/mL) was added to the sample outside of the NMR. The sample was mixed by shaking and quickly reintroduced to the NMR.
(§5) The time of enzyme addition was recorded as t0. Spectra were recorded over an appropriate time- scale with the relaxation delay at 3*T1 of the internal standard.
(§6) In vivo experiments were performed at the company Charles Rivers (Den Bosch, The Netherlands) in accordance with Dutch law of animal experiments and under approval of the central committee of animal experiments (CCD). Relative and absolute bioavailability may be determined in different animal models and according to different protocols.
(§7) The following protocol is typical for determining bioavailability in female Beagle dogs. The animals were deprived from food over a time period of 8 h prior to administration and 2 h after administration of the test molecules. Water was supplied without limitation. On the study day, the animals received test molecule 10h […]
(§8) ethanol and 0.9% NaCl + 5% mannitol in water. Blood samples were collected from the jugular vein on the […]

[2] = target: T2, Abg (Agrobacterium Sp. β-glucosidase) (Agrobacterium sp., UniProt P12614); test: Enzymatic conversion of glycoside-drug conjugates at 200 μM analyzed by HPLC; assay type: biochemical; details: for Product release: 200 μM substrate, 50 mM phosphate buffer pH 6.8, Abg 0.1 U/mL; for Product release / Enzymatic hydrolysis by Abg (in words): 37 °C; for Enzymatic hydrolysis by Abg (in words): HPLC
T2 sequence (P12614 1-459): T1 sequence (P12614 1-459)

[3] = substrate: O=[N+]([O-])c1ccc(OCO[C@@H]2O[C@H](CO)[C@@H](O)[C@H](O)[C@H]2O)cc1; test: Michaelis-Menten kinetics of enzymatic hydrolysis, release of 4-nitrophenol (absorbance at 405 nm); assay type: biochemical, Agrobacterium Sp.; details: other: 4-nitrophenyloxymethyl glycosides 5a-f, phosphate buffer pH 6.8, 0.1 % BSA, 37 °C, N.A: no activity
Experimental: as §1, §2, §3, §4, §5, §6, §7, §8

[4] = substrate: O=[N+]([O-])c1ccc(O[C@@H]2OC[C@H](O)[C@H](O)[C@H]2O)cc1; test: as above; assay type: biochemical, Agrobacterium Sp.; details: other: 4-nitrophenyl glycosides 6a-f, phosphate buffer pH 6.8, 0.1 % BSA, 37 °C
Experimental: as §1, §2, §3, §4, §5, §6, §7, §8

[5] = substrate: O=[N+]([O-])c1ccc(O[C@@H]2O[C@H](CO)[C@@H](O)[C@H](O)[C@H]2O)cc1; test: as above; assay type: biochemical, Agrobacterium Sp.; details: other: 4-nitrophenyl glycosides 6a-f, phosphate buffer pH 6.8, 0.1 % BSA, 37 °C
Experimental: as §1, §2, §3, §4, §5, §6, §7, §8

[6] = substrate: C[C@H]1O[C@@H](OCOc2ccc([N+](=O)[O-])cc2)[C@H](O)[C@@H](O)[C@H]1O; test: as above; assay type: biochemical, Agrobacterium Sp.; details: other: 4-nitrophenyloxymethyl glycosides 5a-f, phosphate buffer pH 6.8, 0.1 % BSA, 37 °C, N.A: no activity
Experimental: as §1, §2, §3, §4, §5, §6, §7, §8

[7] = substrate: O=[N+]([O-])c1ccc(O[C@@H]2OC[C@@H](O)[C@H](O)[C@H]2O)cc1; test: as above; assay type: biochemical, Agrobacterium Sp.; details: other: 4-nitrophenyl glycosides 6a-f, phosphate buffer pH 6.8, 0.1 % BSA, 37 °C
Experimental: as §1, §2, §3, §4, §5, §6, §7, §8

[8] = substrate: O=[N+]([O-])c1ccc(O[C@@H]2O[C@H](CO)[C@H](O)[C@H](O)[C@H]2O)cc1; test: as above; assay type: biochemical, Agrobacterium Sp.; details: other: 4-nitrophenyl glycosides 6a-f, phosphate buffer pH 6.8, 0.1 % BSA, 37 °C
Experimental: as §1, §2, §3, §4, §5, §6, §7, §8

[9] = substrate: C[C@H]1O[C@@H](Oc2ccc([N+](=O)[O-])cc2)[C@H](O)[C@@H](O)[C@@H]1O; test: as above; assay type: biochemical, Agrobacterium Sp.; details: other: 4-nitrophenyl glycosides 6a-f, phosphate buffer pH 6.8, 0.1 % BSA, 37 °C
Experimental: as §1, §2, §3, §4, §5, §6, §7, §8

[10] = substrate: C[C@H]1O[C@@H](OCOc2ccc([N+](=O)[O-])cc2)[C@H](O)[C@@H](O)[C@@H]1O; test: as above; assay type: biochemical, Agrobacterium Sp.; details: other: 4-nitrophenyloxymethyl glycosides 5a-f, phosphate buffer pH 6.8, 0.1 % BSA, 37 °C, N.A: no activity
Experimental: as §1, §2, §3, §4, §5, §6, §7, §8

[11] = substrate: O=[N+]([O-])c1ccc(OCO[C@@H]2O[C@H](CO)[C@H](O)[C@H](O)[C@H]2O)cc1; test: as above; assay type: biochemical, Agrobacterium Sp.; details: other: 4-nitrophenyloxymethyl glycosides 5a-f, phosphate buffer pH 6.8, 0.1 % BSA, 37 °C, N.A: no activity
Experimental: as §1, §2, §3, §4, §5, §6, §7, §8

[12] = substrate: C[C@H]1O[C@@H](Oc2ccc([N+](=O)[O-])cc2)[C@H](O)[C@@H](O)[C@H]1O; test: as above; assay type: biochemical, Agrobacterium Sp.; details: other: 4-nitrophenyl glycosides 6a-f, phosphate buffer pH 6.8, 0.1 % BSA, 37 °C
Experimental: as §1, §2, §3, §4, §5, §6, §7, §8

[13] = 200 μM, in presence of 5 % ethanol
[14] = 0.5 h, in presence of 5 % ethanol
[15] = 1.0 h, in presence of 5 % ethanol
[16] = 2.0 h, in presence of 5 % ethanol

For `C[C@H]1O[C@@H](Oc2ccc([N+](=O)[O-])cc2)[C@H](O)[C@@H](O)[C@@H]1O` [6 b], the “V0 at high substrate concentration (in words)” value [1] was “over expected rate‐enhancement”.

For `OC[C@H]1O[C@@H](Oc2ccccc2)[C@H](O)[C@@H](O)[C@@H]1O` [Glc−Ph, phenyl β‐D‐glucopyranoside, reference compound], the Product release ([2]; 0.5 h) was 1.9±0.04%, the Product release ([2]; 1.0 h) was 3.0±0.30% and the Product release ([2]; 2.0 h) was 5.2±0.16%. The Product release ([2]; 24 h) was 28% and 27.7±5.5%.

With `OC[C@H]1O[C@@H](OCOc2ccccc2)[C@H](O)[C@@H](O)[C@@H]1O` [10 a] the Product release ([2]; 0.5 h) was 38.6±2.3%, the Product release ([2]; 1.0 h) was 66.0±2.0% and the Product release ([2]; 2.0 h) was 90% and 89.8±1.7%. For the same molecule, the “Increase in conversion compared to direct conjugate Glc−Ph” value ([2]; after two hours, 200 μM, Abg) was “twenty”.

In the case of `O=[N+]([O-])c1ccc(O[C@@H]2OC[C@@H](O)[C@H](O)[C@H]2O)cc1` [6 c, 4‐nitrophenyl xylose], the “V0 at high substrate concentration (in words)” value [1] is reported as “over expected rate‐enhancement”.

For `O=[N+]([O-])c1ccc(O[C@@H]2O[C@H](CO)[C@H](O)[C@H](O)[C@H]2O)cc1` [6 d], the “V0 at high substrate concentration (in words)” value [1] was “followed a horizontal asymptote”.

For `C[C@H]1O[C@@H](Oc2ccc([N+](=O)[O-])cc2)[C@H](O)[C@@H](O)[C@H]1O` [6 e], the “V0 at high substrate concentration (in words)” value [1] was “followed a horizontal asymptote”.

`CC(C)c1cccc(C(C)C)c1OCO[C@@H]1O[C@H](CO)[C@@H](O)[C@H](O)[C@H]1O` [10 b] was tested, and the “Enzymatic hydrolysis by Abg (in words)” value [2, 13] was “not hydrolyzed”, the Product release [2, 14] was 1.95±0.3% and the Product release [2, 15] was 1.73±0.3%. For the same molecule, the Product release [2, 16] was 1.66±0.4%.

In the case of `CCCCc1nc(Cl)c(CO)n1Cc1ccc(-c2ccccc2-c2nnn(CO[C@@H]3O[C@H](CO)[C@@H](O)[C@H](O)[C@H]3O)n2)cc1` [10 i], the “Enzymatic hydrolysis by Abg (in words)” value [2, 13] is reported as “hydrolyzed slower”, the Product release [2, 14] is reported as 16.7±4.8% and the Product release [2, 15] is reported as 39.3±2.2%. For the same molecule, the Product release [2, 16] was 51.3±4% and the Product release ([2]; 24 h, in presence of 5 % ethanol) was 74.7±10%.

B1: Agrobacterium Sp. β-glucosidase (Abg, GH1 family) (Agrobacterium sp. ATCC 21400) (protein)
chain: T1 sequence (P12614 1-459)
B1 was tested, and the Km [3] was 84 µM, the kcat [3] was 18.4 s⁻¹ and the kcat/Km [3] was 219000 M⁻¹ s⁻¹. It also gave a Km [4] of 175 µM, a kcat [4] of 1.03 s⁻¹ and a kcat/Km [4] of 5890 M⁻¹ s⁻¹. The Km [5] was 108 µM, the kcat [5] was 38.8 s⁻¹ and the kcat/Km [5] was 359000 M⁻¹ s⁻¹. It also gave a Km [6] of 202 µM, a kcat [6] of 7.18 s⁻¹ and a kcat/Km [6] of 35500 M⁻¹ s⁻¹. For the same molecule, the Km [7] was 244 µM, the kcat [7] was 0.580 s⁻¹ and the kcat/Km [7] was 2380 M⁻¹ s⁻¹. It also gave a Km [8] of 3450 µM, a kcat [8] of 63.6 s⁻¹ and a kcat/Km [8] of 18400 M⁻¹ s⁻¹. For the same molecule, the Km [9] was 169 µM, the kcat [9] was 29.5 s⁻¹ and the kcat/Km [9] was 175000 M⁻¹ s⁻¹. The Km [10] was 239 µM, the kcat [10] was 0.796 s⁻¹ and the kcat/Km [10] was 3330 M⁻¹ s⁻¹. The Km [11] was 1870 µM, the kcat [11] was 3.71 s⁻¹ and the kcat/Km [11] was 1980 M⁻¹ s⁻¹. The Km [12] was 233 µM, the kcat [12] was 60.3 s⁻¹ and the kcat/Km [12] was 259000 M⁻¹ s⁻¹.
